Results from PMC8627417 (Journal for Immunotherapy of Cancer, 2021).

Target: receptor of advanced glycation end products (RAGE) (UniProt Q15109 23-404)
Sequence (Q15109 23-404): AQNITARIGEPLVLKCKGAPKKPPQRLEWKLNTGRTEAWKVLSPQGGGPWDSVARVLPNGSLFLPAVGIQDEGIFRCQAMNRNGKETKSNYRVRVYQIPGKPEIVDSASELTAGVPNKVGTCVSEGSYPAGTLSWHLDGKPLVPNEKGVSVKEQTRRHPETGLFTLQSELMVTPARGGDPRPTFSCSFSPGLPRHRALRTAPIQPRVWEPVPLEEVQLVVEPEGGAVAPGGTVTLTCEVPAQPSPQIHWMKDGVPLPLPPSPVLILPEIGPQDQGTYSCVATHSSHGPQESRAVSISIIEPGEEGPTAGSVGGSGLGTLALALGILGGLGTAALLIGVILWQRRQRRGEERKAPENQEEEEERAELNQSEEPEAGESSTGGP

Kd: ~16 nM
B1: chitinase 3-like 1 (CHI3L1) (natural protein)
chain: not shown
